{"source": "paper doi:10.1101/2025.07.24.665437", "about": "“Consensus DNA Inhibits p53 Aggregation but Fails to Rescue Mutants”", "binders": {"B1": {"name": "p21-RE (dsDNA)", "DNA 1": "CGCGAACATGTCCCAACATGTTGCGC", "DNA 2": "GCGCAACATGTTGGGACATGTTCGCG"}}, "target": "p53 DBD WT (UniProt P04637 94-312)", "sequence (P04637 94-312)": "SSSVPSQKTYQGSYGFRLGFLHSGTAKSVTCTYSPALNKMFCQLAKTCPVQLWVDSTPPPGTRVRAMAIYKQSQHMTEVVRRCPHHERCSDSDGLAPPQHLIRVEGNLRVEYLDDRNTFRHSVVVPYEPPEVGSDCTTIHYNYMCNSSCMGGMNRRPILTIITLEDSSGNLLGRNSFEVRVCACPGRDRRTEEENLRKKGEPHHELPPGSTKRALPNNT", "experiment": "EMSA; protein:DNA 1:1, 9:1, 454:1; binding kept 24 h to 1 month; EMSA on TBE gels; protein in 1X PBS, 1 mM TCEP, pH 7.4; DNA stocks in 50 mM Tris-HCl, 137 mM NaCl, pH 8.1; samples held at 4 C (0 hr) or incubated (37 C, 24 h for aggregation); full EMSA details not in material", "conditions": "protein: recombinant; tags: 6xHis-TEV (N-terminal); blunt", "data": [{"binder": "B1", "values": [{"measurement": "binding result", "result": "binds"}]}]}
